Results reported in US20110014201A1.

Target: Recombinant human IL-18 (Peprotech 200-18) (human) (UniProt Q14116)
Assay: cell-based or functional assay

Sequence of Recombinant human IL-18 (Peprotech 200-18) (human) (Q14116 37-193 limits assumed): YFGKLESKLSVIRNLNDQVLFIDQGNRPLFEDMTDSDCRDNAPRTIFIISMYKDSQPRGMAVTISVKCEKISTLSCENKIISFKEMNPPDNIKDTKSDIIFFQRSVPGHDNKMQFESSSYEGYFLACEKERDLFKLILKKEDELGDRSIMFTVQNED
Sequence of recombinant IL-18BP/Fc chimera (R&D Systems, 119-BP) (O95998 31-194, change not shown): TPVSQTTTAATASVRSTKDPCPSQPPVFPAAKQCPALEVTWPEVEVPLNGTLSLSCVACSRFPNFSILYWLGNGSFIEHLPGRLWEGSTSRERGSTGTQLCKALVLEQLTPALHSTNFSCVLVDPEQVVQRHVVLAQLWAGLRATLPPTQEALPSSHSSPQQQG

ED50, inhibition of INF-γ release by KG1 cells: 0.52 nM
Substance: recombinant IL-18BP/Fc chimera (R&D Systems, 119-BP) (from UniProt O95998 31-194) (Fc fusion)
